# B1: ΔIRE1-V5/His (ER lumenal domain of human IRE1) [human] / FLAG-tagged full-length wild-type IRE1 [human] (parent)
# chain 1: IFGSTSTVTLPETLLFVSTLDGSLHAVSKRTGSIKWTLKEDPVLQVPTHVEEPAFLPDPNDGSLYTLGSKNNEGLTKLPFTIPELVQASPCRSSDGILYMGKKQDIWYVIDLLTGEKQQTLSSAFADSLCPSTSLLYLGRTEYTITMYDTKTRELRWNATYFDYAASLPEDDVDYKMSHFVSNGDGLVVTVDSESGDVLWIQNYASPVVAFYVWQREGLRKVMHINVAVETLRYLTFMSGEVGRITKWKYPFPKETEAKSKLTPTLYVGKYSTSLYASPSMVHEGVAVVPRGSTLPLLEGPQTDGVTIGDKGECVITPSTDVKFDPGLKSKNKLNYLRNYWLLIGHHETPLSASTKMLERFPNNLPKHRENVIPADSEKKSFEEVINLVDQTSENAPTTVSRDVEEKPAHAPARPEAPVDSMLKDMATIILSTFLLIGWVAFIITYPLSMHQQQQLQHQQFQKELEKIQLLQQQQQQLPFHPPGDTAQDGELLDTSGPYSESSGTSSPSTSPRASNHSLCSGSSASKAGSSPSLEQDDGDEETSVVIVGKISFCPKDVLGHGAEGTIVYRGMFDNRDVAVKRILPECFSFADREVQLLRESDEHPNVIRYFCTEKDRQFQYIAIELCAATLQEYVEQKDFAHLGLEPITLLQQTTSGLAHLHSLNIVHRDLKPHNILISMPNAHGKIKAMISDFGLCKKLAVGRHSFSRRSGVPGTEGWIAPEMLSEDCKENPTYTVDIFSAGCVFYYVISEGSHPFGKSLQRQANILLGACSLDCLHPEKHEDVIARELIEKMIAMDPQKRPSAKHVLKHPFFWSLEKQLQFFQDVSDRIEKESLDGPIVKQLERGGRAVVKMDWRENITVPLQTDLRKFRTYKGGSVRDLLRAMRNKKHHYRELPAEVRETLGSLPDDFVCYFTSRFPHLLAHTYRAMELCSHERLFQPYYFHEPPEPQPPVTPDAL
# chain 2: IFGSTSTVTLPETLLFVSTLDGSLHAVSKRTGSIKWTLKEDPVLQVPTHVEEPAFLPDPNDGSLYTLGSKNNEGLTKLPFTIPELVQASPCRSSDGILYMGKKQDIWYVIDLLTGEKQQTLSSAFADSLCPSTSLLYLGRTEYTITMYDTKTRELRWNATYFDYAASLPEDDVDYKMSHFVSNGDGLVVTVDSESGDVLWIQNYASPVVAFYVWQREGLRKVMHINVAVETLRYLTFMSGEVGRITKWKYPFPKETEAKSKLTPTLYVGKYSTSLYASPSMVHEGVAVVPRGSTLPLLEGPQTDGVTIGDKGECVITPSTDVKFDPGLKSKNKLNYLRNYWLLIGHHETPLSASTKMLERFPNNLPKHRENVIPADSEKKSFEEVINLVDQTSENAPTTVSRDVEEKPAHAPARPEAPVDSMLKD
# Variants of: B1
# Assay: co-immunoprecipitation (IP: V5, Western blot for FLAG, quantified)
# Conditions: with FLAG-tagged full-length wild-type IRE1 [human]; with Sig-1R overexpression; non-stressed cells; n = 4; read off a plot
row,screen value [%],Variant
1,58,chain 2 D105P
